From paper PMC9758051

How the values were obtained:
[1] = molecular target: turkey β1-adrenergic receptor, engineered thermostabilised construct (modified β44-m23) (turkey (M. gallopavo)) (UniProt P07700); test: native MS; tβ1AR 5 μM with mini-Gs 6 μM, orciprenaline 2 at 250 μM
[2] = molecular target: tβ1AR variant with alanine mutations on TM5 (E233A and E236A) (turkey (M. gallopavo)) (UniProt P07700); test: native MS; tβ1AR with mini-Gα at 1:1.2 molar ratio, 4 °C, at least 20 min, coupling buffer (10 mM HEPES, 10 mM Tris-HCl pH 7.4, 200 mM NaCl, 1 mM MgCl2, 5 mM GDP, 0.05% DDM) with isoprenaline 1 at 25 μM
[3] = molecular target: turkey β1-adrenergic receptor, engineered thermostabilised construct (modified β44-m23) (turkey (M. gallopavo)) (UniProt P07700); test: native MS; tβ1AR 5 μM with mini-Gs 6 μM, isoprenaline derivative 5 at 250 μM
[4] = molecular target: turkey β1-adrenergic receptor, engineered thermostabilised construct (modified β44-m23) (turkey (M. gallopavo)) (UniProt P07700); test: native MS; tβ1AR 5 μM with mini-Gs 6 μM, 1-phenyl-2[(propan-2-yl)amino]ethan-1-ol 3 at 250 μM
[5] = molecular target: endogenous metal (Zn2+); test: mass spectrometry (MS) of receptor-mini-Gs complex; conditions: metal-binding read on the tβ1AR-mini-Gs complex; mean ± s.d. from three independent experiments; read off a plot

Substance | percent reduction of mini-Gs coupling against isoprenaline 1 [1] [%] | percent attenuation of coupling against wild-type tβ1AR [2] [%] | percent attenuation of mini-Gs coupling against isoprenaline 1 [3] [%] | percent attenuation of mini-Gs coupling against isoprenaline 1 [4] [%] | other: inhibition of metal-binding (%) [5] [%]
mini-Gs construct R414, engineered minimal Gα subunit (engineered Gαs) | 60 | 21.2 | 75 | 90 | 
turkey β1-adrenergic receptor, engineered thermostabilised construct (modified β44-m23) (from UniProt P07700) E285A; H286A |  |  |  |  | 11
